Reference: patent US7939292B2, “Modified heparinase III and methods of sequencing therewith” (Massachusetts Institute of Technology, priority 2000, dated 2011)
Entries after “also recorded” stand apart in the source; their conditions may differ.

B1: H539A: recombinant heparinase III with histidine 539 mutated to alanine (protein)
chain: MTTKIFKRIIVFAVIALSSGNILAQSSSITRKDFDHINLEYSGLEKVNKAVAAGNYDDAAKALLAYYREKSKAREPDFSNAEKPADIRQPIDKVTREMADKALVHQFQPHKGYGYFDYGKDINWQMWPVKDNEVRWQLHRVKWWQAMALVYHATGDEKYAREWVYQYSDWARKNPLGLSQDNDKFVWRPLEVSDRVQSLPPTFSLFVNSPAFTPAFLMEFLNSYHQQADYLSTHYAEQGNHRLFEAQRNLFAGVSFPEFKDSPRWRQTGISVLNTEIKKQVYADGMQFELSPIYHVAAIDIFLKAYGSAKRVNLEKEFPQSYVQTVENMIMALISISLPDYNTPMFGDSWITDKNFRMAQFASWARVFPANQAIKYFATDGKQGKAPNFLSKALSNAGFYTFRSGWDKNATVMVLKASPPGEFHAQPDNGTFELFIKGRNFTPDAGVFVYSGDEAIMKLRNWYRQTRIHSTLTLDNQNMVITKARQNKWETGNNLDVLTYTNPSYPNLDHQRSVLFINKKYFLVIDRAIGEATGNLGVAWQLKEDSNPVFDKTKNRVYTTYRDGNNLMIQSLNADRTSLNEEEGKVSYVYNKELKRPAFVFEKPKKNAGTQNFVSIVYPYDGQKAPEISIRENKGNDFEKGKLNLTLTINGKQQLVLVP
B2: H510A: recombinant heparinase III with histidine 510 mutated to alanine (protein)
chain: MTTKIFKRIIVFAVIALSSGNILAQSSSITRKDFDHINLEYSGLEKVNKAVAAGNYDDAAKALLAYYREKSKAREPDFSNAEKPADIRQPIDKVTREMADKALVHQFQPHKGYGYFDYGKDINWQMWPVKDNEVRWQLHRVKWWQAMALVYHATGDEKYAREWVYQYSDWARKNPLGLSQDNDKFVWRPLEVSDRVQSLPPTFSLFVNSPAFTPAFLMEFLNSYHQQADYLSTHYAEQGNHRLFEAQRNLFAGVSFPEFKDSPRWRQTGISVLNTEIKKQVYADGMQFELSPIYHVAAIDIFLKAYGSAKRVNLEKEFPQSYVQTVENMIMALISISLPDYNTPMFGDSWITDKNFRMAQFASWARVFPANQAIKYFATDGKQGKAPNFLSKALSNAGFYTFRSGWDKNATVMVLKASPPGEFHAQPDNGTFELFIKGRNFTPDAGVFVYSGDEAIMKLRNWYRQTRIHSTLTLDNQNMVITKARQNKWETGNNLDVLTYTNPSYPNLDAQRSVLFINKKYFLVIDRAIGEATGNLGVHWQLKEDSNPVFDKTKNRVYTTYRDGNNLMIQSLNADRTSLNEEEGKVSYVYNKELKRPAFVFEKPKKNAGTQNFVSIVYPYDGQKAPEISIRENKGNDFEKGKLNLTLTINGKQQLVLVP
B3: H295A: recombinant heparinase III with histidine 295 mutated to alanine (protein)
chain: MTTKIFKRIIVFAVIALSSGNILAQSSSITRKDFDHINLEYSGLEKVNKAVAAGNYDDAAKALLAYYREKSKAREPDFSNAEKPADIRQPIDKVTREMADKALVHQFQPHKGYGYFDYGKDINWQMWPVKDNEVRWQLHRVKWWQAMALVYHATGDEKYAREWVYQYSDWARKNPLGLSQDNDKFVWRPLEVSDRVQSLPPTFSLFVNSPAFTPAFLMEFLNSYHQQADYLSTHYAEQGNHRLFEAQRNLFAGVSFPEFKDSPRWRQTGISVLNTEIKKQVYADGMQFELSPIYAVAAIDIFLKAYGSAKRVNLEKEFPQSYVQTVENMIMALISISLPDYNTPMFGDSWITDKNFRMAQFASWARVFPANQAIKYFATDGKQGKAPNFLSKALSNAGFYTFRSGWDKNATVMVLKASPPGEFHAQPDNGTFELFIKGRNFTPDAGVFVYSGDEAIMKLRNWYRQTRIHSTLTLDNQNMVITKARQNKWETGNNLDVLTYTNPSYPNLDHQRSVLFINKKYFLVIDRAIGEATGNLGVHWQLKEDSNPVFDKTKNRVYTTYRDGNNLMIQSLNADRTSLNEEEGKVSYVYNKELKRPAFVFEKPKKNAGTQNFVSIVYPYDGQKAPEISIRENKGNDFEKGKLNLTLTINGKQQLVLVP
B4: H152A: recombinant heparinase III with histidine 152 mutated to alanine (protein)
chain: MTTKIFKRIIVFAVIALSSGNILAQSSSITRKDFDHINLEYSGLEKVNKAVAAGNYDDAAKALLAYYREKSKAREPDFSNAEKPADIRQPIDKVTREMADKALVHQFQPHKGYGYFDYGKDINWQMWPVKDNEVRWQLHRVKWWQAMALVYAATGDEKYAREWVYQYSDWARKNPLGLSQDNDKFVWRPLEVSDRVQSLPPTFSLFVNSPAFTPAFLMEFLNSYHQQADYLSTHYAEQGNHRLFEAQRNLFAGVSFPEFKDSPRWRQTGISVLNTEIKKQVYADGMQFELSPIYHVAAIDIFLKAYGSAKRVNLEKEFPQSYVQTVENMIMALISISLPDYNTPMFGDSWITDKNFRMAQFASWARVFPANQAIKYFATDGKQGKAPNFLSKALSNAGFYTFRSGWDKNATVMVLKASPPGEFHAQPDNGTFELFIKGRNFTPDAGVFVYSGDEAIMKLRNWYRQTRIHSTLTLDNQNMVITKARQNKWETGNNLDVLTYTNPSYPNLDHQRSVLFINKKYFLVIDRAIGEATGNLGVHWQLKEDSNPVFDKTKNRVYTTYRDGNNLMIQSLNADRTSLNEEEGKVSYVYNKELKRPAFVFEKPKKNAGTQNFVSIVYPYDGQKAPEISIRENKGNDFEKGKLNLTLTINGKQQLVLVP
B5: H225A: recombinant heparinase III with histidine 225 mutated to alanine (protein)
chain: MTTKIFKRIIVFAVIALSSGNILAQSSSITRKDFDHINLEYSGLEKVNKAVAAGNYDDAAKALLAYYREKSKAREPDFSNAEKPADIRQPIDKVTREMADKALVHQFQPHKGYGYFDYGKDINWQMWPVKDNEVRWQLHRVKWWQAMALVYHATGDEKYAREWVYQYSDWARKNPLGLSQDNDKFVWRPLEVSDRVQSLPPTFSLFVNSPAFTPAFLMEFLNSYAQQADYLSTHYAEQGNHRLFEAQRNLFAGVSFPEFKDSPRWRQTGISVLNTEIKKQVYADGMQFELSPIYHVAAIDIFLKAYGSAKRVNLEKEFPQSYVQTVENMIMALISISLPDYNTPMFGDSWITDKNFRMAQFASWARVFPANQAIKYFATDGKQGKAPNFLSKALSNAGFYTFRSGWDKNATVMVLKASPPGEFHAQPDNGTFELFIKGRNFTPDAGVFVYSGDEAIMKLRNWYRQTRIHSTLTLDNQNMVITKARQNKWETGNNLDVLTYTNPSYPNLDHQRSVLFINKKYFLVIDRAIGEATGNLGVHWQLKEDSNPVFDKTKNRVYTTYRDGNNLMIQSLNADRTSLNEEEGKVSYVYNKELKRPAFVFEKPKKNAGTQNFVSIVYPYDGQKAPEISIRENKGNDFEKGKLNLTLTINGKQQLVLVP
B6: H36A: recombinant heparinase III with histidine 36 mutated to alanine (protein)
chain: MTTKIFKRIIVFAVIALSSGNILAQSSSITRKDFDAINLEYSGLEKVNKAVAAGNYDDAAKALLAYYREKSKAREPDFSNAEKPADIRQPIDKVTREMADKALVHQFQPHKGYGYFDYGKDINWQMWPVKDNEVRWQLHRVKWWQAMALVYHATGDEKYAREWVYQYSDWARKNPLGLSQDNDKFVWRPLEVSDRVQSLPPTFSLFVNSPAFTPAFLMEFLNSYHQQADYLSTHYAEQGNHRLFEAQRNLFAGVSFPEFKDSPRWRQTGISVLNTEIKKQVYADGMQFELSPIYHVAAIDIFLKAYGSAKRVNLEKEFPQSYVQTVENMIMALISISLPDYNTPMFGDSWITDKNFRMAQFASWARVFPANQAIKYFATDGKQGKAPNFLSKALSNAGFYTFRSGWDKNATVMVLKASPPGEFHAQPDNGTFELFIKGRNFTPDAGVFVYSGDEAIMKLRNWYRQTRIHSTLTLDNQNMVITKARQNKWETGNNLDVLTYTNPSYPNLDHQRSVLFINKKYFLVIDRAIGEATGNLGVHWQLKEDSNPVFDKTKNRVYTTYRDGNNLMIQSLNADRTSLNEEEGKVSYVYNKELKRPAFVFEKPKKNAGTQNFVSIVYPYDGQKAPEISIRENKGNDFEKGKLNLTLTINGKQQLVLVP
B7: H234A: recombinant heparinase III with histidine 234 mutated to alanine (protein)
chain: MTTKIFKRIIVFAVIALSSGNILAQSSSITRKDFDHINLEYSGLEKVNKAVAAGNYDDAAKALLAYYREKSKAREPDFSNAEKPADIRQPIDKVTREMADKALVHQFQPHKGYGYFDYGKDINWQMWPVKDNEVRWQLHRVKWWQAMALVYHATGDEKYAREWVYQYSDWARKNPLGLSQDNDKFVWRPLEVSDRVQSLPPTFSLFVNSPAFTPAFLMEFLNSYHQQADYLSTAYAEQGNHRLFEAQRNLFAGVSFPEFKDSPRWRQTGISVLNTEIKKQVYADGMQFELSPIYHVAAIDIFLKAYGSAKRVNLEKEFPQSYVQTVENMIMALISISLPDYNTPMFGDSWITDKNFRMAQFASWARVFPANQAIKYFATDGKQGKAPNFLSKALSNAGFYTFRSGWDKNATVMVLKASPPGEFHAQPDNGTFELFIKGRNFTPDAGVFVYSGDEAIMKLRNWYRQTRIHSTLTLDNQNMVITKARQNKWETGNNLDVLTYTNPSYPNLDHQRSVLFINKKYFLVIDRAIGEATGNLGVHWQLKEDSNPVFDKTKNRVYTTYRDGNNLMIQSLNADRTSLNEEEGKVSYVYNKELKRPAFVFEKPKKNAGTQNFVSIVYPYDGQKAPEISIRENKGNDFEKGKLNLTLTINGKQQLVLVP

Test: Heparinase III kinetic assay of r-heparinase III and histidine mutants
Format: biochemical
Conditions: for kcat / Km: heparan sulfate; for Km: calculated assuming a molecular weight of 15 kDa; for enzymatic activity towards heparan sulfate: kinetic data and exhaustive digest profile
Experimental: The activity of heparinase III was measured using a UV 232 nm assay similar to those reported for heparinase I and heparinase II (Godavarti, R., Cooney, C. L., Langer, R., and Sasisekharan, R. (1996) Biochemistry 35, 6846-52; Shriver, Z., Hu, Y., and Sasisekharan, R. (1998) J. Biol. Chem. 273, 10160-67; and Lohse, D. and Linhardt, R. J. (1992) J. Biol. Chem. 267, 781-87). Briefly, the increase in absorbance at 232 nm as a function of time was monitored under saturating substrate conditions. All assays were performed with heparan sulfate at a concentration of 2 mg/ml in 50 mM sodium phosphate, pH 7.6. The temperature for enzymatic activity measurements was kept constant at 35° C.
In parallel to the mapping studies and to confirm the results of the chemical modification experiments, each of the thirteen histidine residues present in heparinase III was mutated to alanine. The recombinant heparinase III mutant proteins were expressed, purified, and assessed for enzymatic activity towards heparan sulfate (Table 2).

Row | Molecule | changes in recombinant protein yield, enzyme activity, or kinetic parameters compared with r-heparinase III | kcat | Km | enzymatic activity towards heparan sulfate
1 | B1 | no significant changes | 132 s⁻¹ | 92 µM | –
2 | B2 | no significant changes | – | – | completely inactive; also recorded: no enzymatic activity
3 | B3 | – | – | – | completely inactive; also recorded: no enzymatic activity
4 | B4 | no significant changes | 83 s⁻¹ | 58 µM | –
5 | B5 | no significant changes | 22 s⁻¹ | 80 µM | –
6 | B6 | no significant changes | 86 s⁻¹ | 98 µM | –
7 | B7 | no significant changes | 23 s⁻¹ | 75 µM | –
